± gives the standard deviation of the averaged measurements.
B1: library; a variant is named by its letters at N, in order (parent)
chain: GCUGUCACCGAGAAACUGUGAAGUAUAUCUUAAACCUGGGCACUUAAAAGAUAUAUGGAGUUAGUAGUGCAACCUGCUCGGUCUGAUGAGUCCNNNNNNGGACGAAACAGC

Key:
[1] = variants of: B1; assay: normalized RNA/DNA level without ligand (relative to sTRSVctl = 100) (log10 (% of sTRSVctl)); HEK293T; ligand: cyclic di-GMP (c-di-GMP-II aptamer); higher = less ribozyme self-cleavage, higher mRNA level; details: reporter: mCherry (pCS4076), ligand present: no
Summary of the method: (§1)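 For each 6-well well, 4 µg of library plasmid encoding mCherry-linked ribozyme switches, or eGFP-linked ones in some ligand experiments, was transfected into HEK293T. Any ligand was added 1 h before transfection, and RNA was extracted with EDTA 72 h after it, then reverse-transcribed, amplified, barcoded and sequenced. RNA level was obtained by dividing RNA reads by DNA reads, normalizing to a spiked-in non-cleaving sequence or to the top sequences, then scaling and log-transforming. The top set was 25 sequences, scaling was ×100 with log10, and ≥100 DNA reads were required.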

[2] = variants of: B1; assay: normalized RNA/DNA level with ligand (relative to sTRSVctl = 100) (log10 (% of sTRSVctl)); HEK293T; ligand: cyclic di-GMP (c-di-GMP-II aptamer); ligand concentration (+) RNA-Seq: 1 mM; higher = less ribozyme self-cleavage, higher mRNA level; details: reporter: mCherry (pCS4076), ligand present: yes
Summary of the method: as §1

Variant	normalized RNA/DNA level without ligand (log10) [1]	normalized RNA/DNA level with ligand (log10) [2]
GCUGUCACCGAGAAACUGUGAAGUAUAUCUUAAACCUGGGCACUUAAAAGAUAUAUGGAGUUAGUAGUGCAACCUGCUCGGUCUGAUGAGUCCACCGCUGGACGAAACAGC [ACCGCU]	1.7 ± 0.028	1.86 ± 0.12
GCUGUCACCGAGAAACUGUGAAGUAUAUCUUAAACCUGGGCACUUAAAAGAUAUAUGGAGUUAGUAGUGCAACCUGCUCGGUCUGAUGAGUCCUGUUGCGGACGAAACAGC [UGUUGC]	1.75 ± 0.026	1.89 ± 0.14
GCUGUCACCGAGAAACUGUGAAGUAUAUCUUAAACCUGGGCACUUAAAAGAUAUAUGGAGUUAGUAGUGCAACCUGCUCGGUCUGAUGAGUCCCCCCGUGGACGAAACAGC [CCCCGU]	1.76 ± 0.021	1.88 ± 0.14
GCUGUCACCGAGAAACUGUGAAGUAUAUCUUAAACCUGGGCACUUAAAAGAUAUAUGGAGUUAGUAGUGCAACCUGCUCGGUCUGAUGAGUCCUGGUGGGGACGAAACAGC [UGGUGG]	1.68 ± 0.017	1.81 ± 0.12
GCUGUCACCGAGAAACUGUGAAGUAUAUCUUAAACCUGGGCACUUAAAAGAUAUAUGGAGUUAGUAGUGCAACCUGCUCGGUCUGAUGAGUCCAAACCAGGACGAAACAGC [AAACCA]	1.57 ± 0.054	1.76 ± 0.094
GCUGUCACCGAGAAACUGUGAAGUAUAUCUUAAACCUGGGCACUUAAAAGAUAUAUGGAGUUAGUAGUGCAACCUGCUCGGUCUGAUGAGUCCGAUAUCGGACGAAACAGC [GAUAUC]	1.6972 ± 0.0005	1.86 ± 0.12
GCUGUCACCGAGAAACUGUGAAGUAUAUCUUAAACCUGGGCACUUAAAAGAUAUAUGGAGUUAGUAGUGCAACCUGCUCGGUCUGAUGAGUCCUCAGGCGGACGAAACAGC [UCAGGC]	1.71 ± 0.027	1.84 ± 0.11
GCUGUCACCGAGAAACUGUGAAGUAUAUCUUAAACCUGGGCACUUAAAAGAUAUAUGGAGUUAGUAGUGCAACCUGCUCGGUCUGAUGAGUCCUCUCAUGGACGAAACAGC [UCUCAU]	1.638 ± 0.0046	1.78 ± 0.061
GCUGUCACCGAGAAACUGUGAAGUAUAUCUUAAACCUGGGCACUUAAAAGAUAUAUGGAGUUAGUAGUGCAACCUGCUCGGUCUGAUGAGUCCGCCACAGGACGAAACAGC [GCCACA]	1.654 ± 0.016	1.81 ± 0.089
GCUGUCACCGAGAAACUGUGAAGUAUAUCUUAAACCUGGGCACUUAAAAGAUAUAUGGAGUUAGUAGUGCAACCUGCUCGGUCUGAUGAGUCCGAGGAAGGACGAAACAGC [GAGGAA]	1.6 ± 0.055	1.72 ± 0.092
GCUGUCACCGAGAAACUGUGAAGUAUAUCUUAAACCUGGGCACUUAAAAGAUAUAUGGAGUUAGUAGUGCAACCUGCUCGGUCUGAUGAGUCCCUAGCGGGACGAAACAGC [CUAGCG]	1.772 ± 0.015	1.85 ± 0.18
GCUGUCACCGAGAAACUGUGAAGUAUAUCUUAAACCUGGGCACUUAAAAGAUAUAUGGAGUUAGUAGUGCAACCUGCUCGGUCUGAUGAGUCCUCGUGGGGACGAAACAGC [UCGUGG]	1.738 ± 0.004	1.89 ± 0.11
GCUGUCACCGAGAAACUGUGAAGUAUAUCUUAAACCUGGGCACUUAAAAGAUAUAUGGAGUUAGUAGUGCAACCUGCUCGGUCUGAUGAGUCCGCGUGGGGACGAAACAGC [GCGUGG]	1.71 ± 0.051	1.78 ± 0.14

Source: the supplement of paper PMC6757056
